Reference: the supplement of paper PMC9732359
± gives the uncertainty stated by the source.

Experiment: protein stability index of a GFP-peptide fusion (yeast GPS) (PSI 1-4); higher = more stable; sorted into four equal gates, so the index is relative within each strain
Conditions: pdr5∆
Outline: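 The protein stability index of a peptide was calculated by multiplying its read frequency in each gate by that gate's number and adding the products. The peptides were tiled 17-residue stretches of yeast proteins, fused downstream of GFP on a Cherry-expressing plasmid and carried in yeast as a pooled library. Mid-log cultures in leucine-free medium were sorted into four equal gates by GFP/Cherry ratio, and each gate's plasmids were PCR-amplified and Illumina-sequenced.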

Point of comparison: EPIEESSQNNSELAPIE [IRR1], protein stability index 2.9 ± 0.13. Against it:
- EELLQLFLNNFVSRIPI [IRR1] — within error, 2.74 ± 0.055
- EELRKHAQKRVSNASAR [SKI6] — higher, 3.22 ± 0.095
- EENSSSNGNNLPLNKPR [RGR1] — higher, 3.29 ± 0.044
- EEQRSDTKNSKSESPSE [ISW2] — within error, 3.21 ± 0.23
- EEREAAASKVKLEEESK [RPC53] — higher, 3.43 ± 0.095
- EESINEFKSIEIEMKNK [SMC4] — higher, 3.56 ± 0.17
- EESWEKVVEFAITHMID [SCL1] — within error, 2.92 ± 0.098
- EEVNRCYLRWQHLRNEH [SNF2] — within error, 3 ± 0.075
- EEYDDDDDNSNVDYYNV [SNF2] — within error, 2.93 ± 0.063
- EFDEQYGTRPLVLPPVV [SNF2] — lower, 2.69 ± 0.063
- EFFHLQHYLDTATAPRL [QCR6] — within error, 3.03 ± 0.043
- EFKSIEIEMKNKLEKLN [SMC4] — lower, 1.51 ± 0.075
- EFLKWTPNVNVLVLHGD [ISW2] — lower, 1.69 ± 0.06
- EFLPLSLHILMIFWNDI [SRB8] — lower, 1.34 ± 0.04
- EFTENELNVDSMDVDDK [ITC1] — higher, 3.24 ± 0.19
- EFTKINTPLVGAAFKVI [YJL039C/NUP192] — lower, 1.91 ± 0.044
- EFVHKYLGEGPRMVRDV [RPT3] — higher, 3.43 ± 0.084
- EGDFLKSIIGKLTAERA [POP1] — higher, 3.23 ± 0.082
- EGHDWKAPTKLDDPEAV [DIS3] — higher, 3.28 ± 0.054
- EGIKETQAKRIFLQQFL [SWI1] — within error, 2.75 ± 0.14
- EGLNQRNQVQTENVAQA [YGR119C/NUP57] — within error, 2.89 ± 0.16
- EGNEKLAAVPAAGPASA [RPP2A] — lower, 2.23 ± 0.063
- EGSTIRYLAVTLQDIGF [YMR129W/POM152] — lower, 2.58 ± 0.04
- EHEEKEKERETNKKGIK [RPN2] — higher, 3.36 ± 0.1
- EIDDFNDIDDLDMELAE [SEC65] — within error, 3.11 ± 0.11
- EIDTILSTLRMEADPSL [RPN9] — within error, 3.04 ± 0.21
- EIFIRCNNVLYIRELPN [SMX3] — lower, 1.75 ± 0.18
- EIGGSDLKESMVKGLLK [ECM29] — higher, 3.53 ± 0.16
- EILVTELTAQGYDPALL [RPN2] — higher, 3.36 ± 0.15
- EINSEDYDNKTKLIGVL [SRP68] — within error, 3.04 ± 0.18
- EINSEMCHIVRKFHELN [GRR1] — within error, 2.81 ± 0.063
- EINYAFSMDEEFKNMDC [SIR3] — higher, 3.14 ± 0.053
- EITDASLNLQYVNYEIS [YML103C/NUP188] — within error, 2.96 ± 0.067
- EIYKQLNDRQEEISRLQ [YIL149C/MLP2] — higher, 3.57 ± 0.078
- EIYRISFQLSKIRRAAR [RPS9A] — lower, 2.15 ± 0.062
- EKADYEDEMMHEEDQKT [RPN12] — within error, 2.97 ± 0.15
- EKDASGKPSFVFGASDK [YOR098C/NUP1] — lower, 2.52 ± 0.065
- EKDAVSVFGFRTQFGGG [RPS24A] — lower, 2.09 ± 0.094
- EKFSPKSFISKLLGIGD [SRP54] — higher, 3.31 ± 0.15
- EKGENPSCVYNLIGVIT [UBP6] — within error, 2.79 ± 0.093
- EKGSWEQLSPQDVLQML [BRR2] — higher, 3.27 ± 0.15
- EKKDSGSSKPAFSFGAK [YJL041W/NSP1] — higher, 3.26 ± 0.098
- EKLLKELENNEFTENEL [ITC1] — higher, 3.21 ± 0.078
- EKPDNSNHNNLNLNNSE [SNF2] — higher, 3.19 ± 0.051
- EKRIQYAKDILQKEFLP [RPB2] — lower, 1.85 ± 0.052
- EKRYDDKLLDFIRYDVK [CSN12] — higher, 3.25 ± 0.066
- EKTLGKSLSKAISTGAK [RPN7] — higher, 3.42 ± 0.12
- EKTMMTFGKPEEEDSIL [YCS4] — higher, 3.37 ± 0.14
- ELDKREDMIDQVSKKLS [SMC3] — within error, 3 ± 0.082
- ELDPECQLQNSDNSEEE [RRP43] — within error, 2.95 ± 0.066
- ELDRAAMNDKDLTMGQV [RPO21] — higher, 3.31 ± 0.14
- ELEDVAVKKLYAIIINY [YCS4] — lower, 1.97 ± 0.065
- ELENNEFTENELNVDSM [ITC1] — higher, 3.21 ± 0.073
- ELENSSPELKAELRPLQ [RPS7A] — higher, 3.53 ± 0.11
- ELESITESITHDSSNGL [NUT1] — higher, 3.27 ± 0.074
- ELFDILSTSEDVSIEEL [IRR1] — lower, 2.15 ± 0.2
- ELGEFFVNGVATSFSRK [FAS2] — lower, 2.6 ± 0.075
- ELISLRKILESSNIVNE [YIL149C/MLP2] — lower, 2.53 ± 0.068
- ELKKYMDKKILLNINGS [SMX2] — lower, 2.25 ± 0.062
- ELLLTTLSVSHGINLQN [SSN2] — lower, 2.04 ± 0.043
- ELLREWLETYSENRDKF [IRR1] — higher, 3.43 ± 0.098
- ELLSMNIAPRLRLEDIF [RET1] — lower, 2.25 ± 0.046
- ELQKSLSLEEVEGHLFE [FAS1] — higher, 3.32 ± 0.16
- ELSFYILYSFKLSGKLL [YML103C/NUP188] — lower, 1.49 ± 0.04
- ELTIIKNPRVTKEYLVQ [CSN9] — within error, 3 ± 0.3
- EMKNIRGPYLVIVPLST [SNF2] — lower, 1.51 ± 0.053
- EMSNKVLKVDKRFMNTS [BRR2] — within error, 2.96 ± 0.05
- ENANAANNGAAFSPLTT [MED2] — within error, 2.92 ± 0.1
- ENAYKSENAPSASSKEF [YAR002W/NUP60] — lower, 1.86 ± 0.062
- ENCLNNDPEILKKIASI [SWI1] — lower, 2.08 ± 0.074
- ENDIIKLSDSKTSNIES [BRR2] — lower, 2.48 ± 0.18
- ENDTTLVKTKELIKNYI [FAS1] — within error, 2.85 ± 0.15
- ENFAKGEHISAIVPGQS [SWP82] — higher, 3.18 ± 0.085
- ENGIEVELLDSNDRVNP [ITC1] — higher, 3.2 ± 0.11
- ENGQRDLDRIAAQTLEE [RPS19A] — higher, 3.16 ± 0.086
- ENISLAEFILKNRSTIF [BRR2] — lower, 2.13 ± 0.082
- ENKTKKDNDKNLKFLKN [SRB4] — higher, 3.4 ± 0.079
- ENLVVADLESFANNHFL [COR1] — lower, 2.24 ± 0.18
- ENNDDALDLDLDLFDPD [MED4] — within error, 2.98 ± 0.098
- EPIDQNTGIVSSTTGMS [RPT3] — within error, 2.65 ± 0.22
- EPIKLEPVKEYTFKTSM [YMR129W/POM152] — lower, 2.29 ± 0.08
- EPPGSNTSFSFTKPPAN [YOR098C/NUP1] — higher, 3.21 ± 0.057
- EPVKEYTFKTSMRVKPS [YMR129W/POM152] — within error, 3.08 ± 0.13
- EQHEEKAAEGEEKEEEN [QCR6] — within error, 2.92 ± 0.18
- EQIDENWSKEDLQKLLK [SWI3] — within error, 3.08 ± 0.085
- EQQVKEAEMAYVKAVSD [SMC4] — within error, 2.89 ± 0.093
- EQVKDDGTSTEKTFLHL [RPN8] — higher, 3.66 ± 0.13
- ERAARVAAKIAALAGQQ [RPL5] — within error, 3.03 ± 0.17
- ERDEQKRAEKKAKERLQ [SNF2] — higher, 3.45 ± 0.16
- ERDTFSDFTFPEYYSTA [DIS3] — lower, 1.73 ± 0.082
- EREQPQENKNIDDENIT [SRB4] — higher, 3.19 ± 0.071
- ERTKNAQFIVISLRNNM [SMC4] — lower, 1.3 ± 0.063
- ERVRLRPEQLSNIIHDE [SNF6] — lower, 2.23 ± 0.068
- ERVRNFAVIYLCDIDEV [DIB1] — lower, 1.22 ± 0.093

Same assay, conditions: san1∆

Point of comparison: EELLQLFLNNFVSRIPI [IRR1], protein stability index 2.75 ± 0.054. Against it:
- EEKEESNLAATKSMVKI [RPN11] — higher, 3.34 ± 0.059
- EEKPGLIITRKAFKNNS [SMC4] — within error, 2.82 ± 0.064
- EELLAQYESQAPDGSAS [SWP82] — higher, 3.13 ± 0.068
